# According to patent publication US20140087995A1 (published 2014):
# Numbered stars: 1 amine (or outer) side, 2 acyl side, 3 side chain; on linkers, the order of the positions; unused ones are H or OH. Bridge positions count the residues as written; N and C are the ends. Square brackets hold non-standard residues; d marks the D form. Side chains are listed from the residue outwards. Ends that are not written are not given here. * marks the point of attachment. C20 diacid = O=C(O)CCCCCCCCCCCCCCCCCCC(=O)*; γGlu = O=C(O)[C@H](CCC(=O)[*:2])N[*:1]
# T1: human amylin receptor (Amylin 3(a) receptor: human calcitonin receptor co-expressed with RAMP-3) (human, UniProt P30988 25-474; O60896 24-148, limits assumed)
# T1 construct: whole, on cells; Used as cell membranes prepared from the Amylin 3(a)/CRE-luc BHK cells (Assay V); the complex is called the human amylin receptor; also called hAmylin-R; hAmylinR
# T1 sequence (looked up) 1: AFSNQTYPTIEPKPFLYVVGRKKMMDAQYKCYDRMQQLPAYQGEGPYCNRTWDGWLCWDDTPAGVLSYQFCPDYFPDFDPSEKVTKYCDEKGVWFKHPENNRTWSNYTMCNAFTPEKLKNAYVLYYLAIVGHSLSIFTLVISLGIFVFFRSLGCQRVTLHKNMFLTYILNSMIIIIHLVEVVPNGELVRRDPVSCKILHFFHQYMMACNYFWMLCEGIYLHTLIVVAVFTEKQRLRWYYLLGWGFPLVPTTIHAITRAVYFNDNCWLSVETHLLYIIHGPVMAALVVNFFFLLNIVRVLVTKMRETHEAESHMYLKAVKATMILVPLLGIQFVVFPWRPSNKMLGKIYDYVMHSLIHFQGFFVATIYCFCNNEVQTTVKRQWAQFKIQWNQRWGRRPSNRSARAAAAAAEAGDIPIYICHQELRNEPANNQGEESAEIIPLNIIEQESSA
# T1 sequence (looked up) 2: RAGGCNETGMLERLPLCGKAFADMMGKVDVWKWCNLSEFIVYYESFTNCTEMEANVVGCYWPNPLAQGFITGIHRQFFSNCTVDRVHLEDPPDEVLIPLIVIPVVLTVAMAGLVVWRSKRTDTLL
# Target: T1, human amylin receptor (Amylin 3(a) …)
# Experiment: SPA competition binding, displacement of 125I-rat amylin from membranes of BHK cells with human calcitonin receptor + RAMP-3 (Assay V)
# Protocol: The binding assay was performed using scintillation proximity assay (SPA) beads (RPNQ0001) from PerkinElmer and cell membranes from the Amylin 3(a)/CRE-luc cells (as described in Assay (II)) were used. Membranes were prepared in the following way; the cells were rinsed with PBS and incubated with Versene for approximately 5 min before harvesting. The cells were flushed with PBS and the cell-suspension was centrifuged for 5 min at 1000 rpm. Cells were homogenized (ultrathurrax) in a buffer containing 20 mM Na-HEPES and 10 mM EDTA (pH 7.4) and centrifuged at 20.000 rpm for 15 min. The resulting pellet was resuspended, homogenized and centrifuged (20.000 rpm, 15 min) in a buffer containing 20 mM Na-HEPES and 0.1 mM EDTA (pH 7.4, buffer 2). The resulting pellet was resuspended in buffer 2 and protein concentration was measured (BCA protein Assay, Pierce). The homogenate was kept cold during the whole procedure. The membranes were kept at −80° C. until use. The assay was performed in a 384 well Optiplate (PerkinElmer) in a total volume of 40 ul. Membranes were mixed with SPA beads. Final concentration of membranes 35 ng/μL final and SPA beads was 0.05 mg/well. Test-compounds were dissolved in DMSO and further diluted in assay buffer (50 mM Hepes, pH 7.4, 1 mM CaCl2, 5 mM MgCl₂, 0.1% OA and 0.02% Tween20). […] The final mixture was incubated with shaking at 400 rpm for 120 min at 25° C. prior to centrifugation (1500 rpm, 10 min). Samples were analyzed on TopCounter™ (Packard). The IC₅₀ was calculated using (one site binding competition analysis) GraphPad Prism5 as a measure of receptor affinity.
row,Binder,IC50
1,"K([γGlu-C20 diacid])CNTATCATQRLAEFLRHSSPNFGAIPSSTNVGPHTY-NH2 (disulfide 2-7, modifications are with respect to human amylin)",179 pM
2,K([γGlu-γGlu-C20 diacid])CNTATCATQRLA[dD]FLRHSSPNFGAIPSSTNVGSRTY-NH2 (disulfide 2-7; N-terminus assumed; SMILES CC[C@H](C)[C@H](NC(=O)[C@H](C)NC(=O)CNC(=O)[C@H](Cc1ccccc1)NC(=O)[C@H](CC(N)=O)NC(=O)[C@@H]1CCCN1C(=O)[C@H](CO)NC(=O)[C@H](CO)NC(=O)[C@H](Cc1c[nH]cn1)NC(=O)[C@H](CCCNC(=N)N)NC(=O)[C@H](CC(C)C)NC(=O)[C@H](Cc1ccccc1)NC(=O)[C@@H](CC(=O)O)NC(=O)[C@H](C)NC(=O)[C@H](CC(C)C)NC(=O)[C@H](CCCNC(=N)N)NC(=O)[C@H](CCC(N)=O)NC(=O)[C@@H](NC(=O)[C@H](C)NC(=O)[C@@H]1CSSC[C@H](NC(=O)[C@@H](N)CCCCNC(=O)CC[C@H](NC(=O)CC[C@H](NC(=O)CCCCCCCCCCCCCCCCCCC(=O)O)C(=O)O)C(=O)O)C(=O)N[C@@H](CC(N)=O)C(=O)N[C@@H]([C@@H](C)O)C(=O)N[C@@H](C)C(=O)N[C@@H]([C@@H](C)O)C(=O)N1)[C@@H](C)O)C(=O)N1CCC[C@H]1C(=O)N[C@@H](CO)C(=O)N[C@@H](CO)C(=O)N[C@H](C(=O)N[C@@H](CC(N)=O)C(=O)N[C@H](C(=O)NCC(=O)N[C@@H](CO)C(=O)N[C@@H](CCCNC(=N)N)C(=O)N[C@H](C(=O)N[C@@H](Cc1ccc(O)cc1)C(N)=O)[C@@H](C)O)C(C)C)[C@@H](C)O),365 pM
3,"K([γGlu-γGlu-C20 diacid])CNTATCATQRLADFLRHSSPNFGAIPSSTNVGPRTY-NH2 (disulfide 2-7, modifications are with respect to human amylin; also called compound 130)",453 pM
4,"K([γGlu-γGlu-C20 diacid])CNTATCATQRLAEFLRHSSPNFGAIPSSTNVGRETY-NH2 (disulfide 2-7; N-terminus assumed; SMILES CC[C@H](C)[C@H](NC(=O)[C@H](C)NC(=O)CNC(=O)[C@H](Cc1ccccc1)NC(=O)[C@H](CC(N)=O)NC(=O)[C@@H]1CCCN1C(=O)[C@H](CO)NC(=O)[C@H](CO)NC(=O)[C@H](Cc1c[nH]cn1)NC(=O)[C@H](CCCNC(=N)N)NC(=O)[C@H](CC(C)C)NC(=O)[C@H](Cc1ccccc1)NC(=O)[C@H](CCC(=O)O)NC(=O)[C@H](C)NC(=O)[C@H](CC(C)C)NC(=O)[C@H](CCCNC(=N)N)NC(=O)[C@H](CCC(N)=O)NC(=O)[C@@H](NC(=O)[C@H](C)NC(=O)[C@@H]1CSSC[C@H](NC(=O)[C@@H](N)CCCCNC(=O)CC[C@H](NC(=O)CC[C@H](NC(=O)CCCCCCCCCCCCCCCCCCC(=O)O)C(=O)O)C(=O)O)C(=O)N[C@@H](CC(N)=O)C(=O)N[C@@H]([C@@H](C)O)C(=O)N[C@@H](C)C(=O)N[C@@H]([C@@H](C)O)C(=O)N1)[C@@H](C)O)C(=O)N1CCC[C@H]1C(=O)N[C@@H](CO)C(=O)N[C@@H](CO)C(=O)N[C@H](C(=O)N[C@@H](CC(N)=O)C(=O)N[C@H](C(=O)NCC(=O)N[C@@H](CCCNC(=N)N)C(=O)N[C@@H](CCC(=O)O)C(=O)N[C@H](C(=O)N[C@@H](Cc1ccc(O)cc1)C(N)=O)[C@@H](C)O)C(C)C)[C@@H](C)O, modifications are with respect to human amylin)",957 pM
5,"K([γGlu-γGlu-C20 diacid])CNTATCATQRLANFLRHSSPNFGAIPSSTPVGPRTY-NH2 (disulfide 2-7; N-terminus assumed; SMILES CC[C@H](C)[C@H](NC(=O)[C@H](C)NC(=O)CNC(=O)[C@H](Cc1ccccc1)NC(=O)[C@H](CC(N)=O)NC(=O)[C@@H]1CCCN1C(=O)[C@H](CO)NC(=O)[C@H](CO)NC(=O)[C@H](Cc1c[nH]cn1)NC(=O)[C@H](CCCNC(=N)N)NC(=O)[C@H](CC(C)C)NC(=O)[C@H](Cc1ccccc1)NC(=O)[C@H](CC(N)=O)NC(=O)[C@H](C)NC(=O)[C@H](CC(C)C)NC(=O)[C@H](CCCNC(=N)N)NC(=O)[C@H](CCC(N)=O)NC(=O)[C@@H](NC(=O)[C@H](C)NC(=O)[C@@H]1CSSC[C@H](NC(=O)[C@@H](N)CCCCNC(=O)CC[C@H](NC(=O)CC[C@H](NC(=O)CCCCCCCCCCCCCCCCCCC(=O)O)C(=O)O)C(=O)O)C(=O)N[C@@H](CC(N)=O)C(=O)N[C@@H]([C@@H](C)O)C(=O)N[C@@H](C)C(=O)N[C@@H]([C@@H](C)O)C(=O)N1)[C@@H](C)O)C(=O)N1CCC[C@H]1C(=O)N[C@@H](CO)C(=O)N[C@@H](CO)C(=O)N[C@H](C(=O)N1CCC[C@H]1C(=O)N[C@H](C(=O)NCC(=O)N1CCC[C@H]1C(=O)N[C@@H](CCCNC(=N)N)C(=O)N[C@H](C(=O)N[C@@H](Cc1ccc(O)cc1)C(N)=O)[C@@H](C)O)C(C)C)[C@@H](C)O, modifications are with respect to human amylin)",880 pM

# Now those with a lower IC50, led by results:
row,IC50,Binder
1,172 pM,"K([γGlu-γGlu-C20 diacid])CNTATCATQRLADFLRHSSPNFGAIPSSTNVGPETY-NH2 (disulfide 2-7, modifications are with respect to human amylin)"
2,163 pM,"K([γGlu-C20 diacid])CNTATCATQRLAEFLRHSSPNFGAIPSSTNVGPRTY-NH2 (disulfide 2-7; N-terminus assumed; SMILES CC[C@H](C)[C@H](NC(=O)[C@H](C)NC(=O)CNC(=O)[C@H](Cc1ccccc1)NC(=O)[C@H](CC(N)=O)NC(=O)[C@@H]1CCCN1C(=O)[C@H](CO)NC(=O)[C@H](CO)NC(=O)[C@H](Cc1c[nH]cn1)NC(=O)[C@H](CCCNC(=N)N)NC(=O)[C@H](CC(C)C)NC(=O)[C@H](Cc1ccccc1)NC(=O)[C@H](CCC(=O)O)NC(=O)[C@H](C)NC(=O)[C@H](CC(C)C)NC(=O)[C@H](CCCNC(=N)N)NC(=O)[C@H](CCC(N)=O)NC(=O)[C@@H](NC(=O)[C@H](C)NC(=O)[C@@H]1CSSC[C@H](NC(=O)[C@@H](N)CCCCNC(=O)CC[C@H](NC(=O)CCCCCCCCCCCCCCCCCCC(=O)O)C(=O)O)C(=O)N[C@@H](CC(N)=O)C(=O)N[C@@H]([C@@H](C)O)C(=O)N[C@@H](C)C(=O)N[C@@H]([C@@H](C)O)C(=O)N1)[C@@H](C)O)C(=O)N1CCC[C@H]1C(=O)N[C@@H](CO)C(=O)N[C@@H](CO)C(=O)N[C@H](C(=O)N[C@@H](CC(N)=O)C(=O)N[C@H](C(=O)NCC(=O)N1CCC[C@H]1C(=O)N[C@@H](CCCNC(=N)N)C(=O)N[C@H](C(=O)N[C@@H](Cc1ccc(O)cc1)C(N)=O)[C@@H](C)O)C(C)C)[C@@H](C)O, modifications are with respect to human amylin)"
3,82 pM,"K([γGlu-C20 diacid])CNTATCATQRLAHFLRHSSPNFGAIPSSTPVGPNTY-NH2 (disulfide 2-7; N-terminus assumed; SMILES CC[C@H](C)[C@H](NC(=O)[C@H](C)NC(=O)CNC(=O)[C@H](Cc1ccccc1)NC(=O)[C@H](CC(N)=O)NC(=O)[C@@H]1CCCN1C(=O)[C@H](CO)NC(=O)[C@H](CO)NC(=O)[C@H](Cc1c[nH]cn1)NC(=O)[C@H](CCCNC(=N)N)NC(=O)[C@H](CC(C)C)NC(=O)[C@H](Cc1ccccc1)NC(=O)[C@H](Cc1c[nH]cn1)NC(=O)[C@H](C)NC(=O)[C@H](CC(C)C)NC(=O)[C@H](CCCNC(=N)N)NC(=O)[C@H](CCC(N)=O)NC(=O)[C@@H](NC(=O)[C@H](C)NC(=O)[C@@H]1CSSC[C@H](NC(=O)[C@@H](N)CCCCNC(=O)CC[C@H](NC(=O)CCCCCCCCCCCCCCCCCCC(=O)O)C(=O)O)C(=O)N[C@@H](CC(N)=O)C(=O)N[C@@H]([C@@H](C)O)C(=O)N[C@@H](C)C(=O)N[C@@H]([C@@H](C)O)C(=O)N1)[C@@H](C)O)C(=O)N1CCC[C@H]1C(=O)N[C@@H](CO)C(=O)N[C@@H](CO)C(=O)N[C@H](C(=O)N1CCC[C@H]1C(=O)N[C@H](C(=O)NCC(=O)N1CCC[C@H]1C(=O)N[C@@H](CC(N)=O)C(=O)N[C@H](C(=O)N[C@@H](Cc1ccc(O)cc1)C(N)=O)[C@@H](C)O)C(C)C)[C@@H](C)O, modifications are with respect to human amylin)"
